Assay results from article PMC3591605.

Molecular target: histones (calf thymus, type IIIS) (calf (thymus)) (UniProt P02253)
Assay: ITC

UniProt P02253, sequence (P02253 whole entry): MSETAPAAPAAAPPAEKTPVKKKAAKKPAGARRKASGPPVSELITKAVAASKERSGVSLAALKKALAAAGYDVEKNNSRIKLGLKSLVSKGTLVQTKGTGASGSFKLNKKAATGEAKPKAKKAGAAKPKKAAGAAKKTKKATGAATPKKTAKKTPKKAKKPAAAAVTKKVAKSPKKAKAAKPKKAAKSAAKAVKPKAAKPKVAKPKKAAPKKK

Kd: 0.191 µM
Substance: large fibrin degradation products (molecular masses >150 kDa) (from UniProt P02671 36-866; P02675 45-491; P02679 27-453) (complex)
